# Reference: the DeepSol protein solubility set
# Assay: soluble on expression in E. coli; label from the status in PepcDB or PDB records
row,Sequence,soluble on expression in E. coli
1,MGSDKIHHHHHHMSVGIRHDDLRRRNRAMVIAAVRRAGRPSRTEIAATTGLSHSTISAISSDLIGEGILAEGKPSEAGALKRGRPQVGLGLNPEAAAVMTVVLSLNFLSVAVIDYAGQVISEEQRRLDTLTMSREALIGECVAIVRRRLEDPDIDVRSVARIALAIQGITDTEARAMLWSPITPQTDIAFADILEAEFGIPATMENDCNMMAVALRWRDPERYRDDFIAILLSHGIGMGLVLKGELFTGTHSSGGEFGHMIHRPGGALCRCGRRGCVEAYAGNYAIWRNARQLSEDTEPVADVSDAQMRALAATARERDGPEREAYRKAGEALGYGLGSLFALIDPAPVAMVGVSAAAFDLIEPALREAIAQTAGGQHSESISFDTEPNELPLIREGCAMRALTFVDQEIFAPGVQTKAGLAAKKNVA,not soluble
2,MSLDIRLLIMPLPDFALLPFGAFLDKLRFSADDEDYSQQRYCSWMVAGLSLEPVPSSSGAVLQVEAIADQLDLDLFDYLVVFGGRSAMATAALAPRYQALLRQAAKAGVKLVGVDNGAFLLAACGLLQGHKVVVHWRHEAEFRAAFPQLQLLREQLYCIDGNRITCAGGTAAIDLAVALLSRACGRTRALKGLADMLVDETREGHHHHHH,soluble
3,MAHHHHHHMENLYFQGMSSFLPEGGCYELLTVIGKGFEDLMTVNLARYKPTGEYVTVRRINLEACSNEMVTFLQGELHVSKLFNHPNIVPYRATFIADNELWVVTSFMAYGSAKDLICTHFMDGMNELAIAYILQGVLKALDYIHHMGYVHRSVKASHILISVDGKVYLSGLRSNLSMISHGQRQRVVHDFPKYSVKVLPWLSPEVLQQNLQGYDAKSDIYSVGITACELANGHVPFKDMPATQMLLEKLNGTVPCLLDTSTIPAEELTMSPSRSVANSGLSDSLTTSTPRPSNGDSPSHPYHRTFSPHFHHFVEQCLQRNPDARPSASTLLNHSFFKQIKRRASEALPELLRPVTPITNFEGSQSQDHSGIFGLVTNLEELEVDDWEF,soluble
4,MGSDKIHHHHHHMHDVLIIGSGVIGMSIARHLSATHLDVAVIDRDVPGKHASYKAGGMLGAQNEFTEDSDLFQLAIESRAMFPQLSKSLLDETGIDIQFKNSGLIKIANEHDDISSIKRQYQFLNSQDRSVKQLSDDDLLQLTHGEVKPSYAAIHIPHDGQINAHHYTLALLESMKLRDIKRYESTEVTSIERHNGYYSVKTDQSSTIEAHKIIVAGGAWSSQLLTQYHLQRQVIGVKGEVILLENNDLSLTETLFMTNGCYIVPKQPNRFLIGATSEFNNYSVGTTDEGMDWLLRHAYHRVPQLKDSHILKKWSGVRPYTEKEMPVMDQIDDGLYVISGHYRNGILLSPIIGRDIANWLLSGIKPSRYSSFTVTRRNNHEVYH,not soluble
5,MNAAEVIVYEHVNFGGKSFDATSDQPGAGDNLNDKISSIKVKSGTWRFYEYINYGGRYWDLGPGEYSSVESAGIPDNSISSFRQI,soluble
6,MFKKVLGLRHWNNNVVKIPPPAAESGANASDVVVDTPEPYERILCQKILMGISTIDIIRNAIIKSCEQLNIEKERINELNEQNDKARSSLKSLVEFITEIGTTSSDIGCRMGDLNTSLTQINACIKEIQKIANQTNLIAINSAIEAARVGDAGRGFSVISKEVKNLSEDVKHSSKSVSTLTSVIKDNTARVSEVLDNQQPVIDNITTNINQIVESIGIVIDKSLSMKSVMQYISTVQFLNIVKVDHVIWKMEVYKLLLNKDINSKITMHDQCRLGKWYYGFEGQQFSNYYSFRSLEAPHKEVHTAGHSALNYFAAGDMNAMSQELDRMERSSNEVVNQLEMLAVDLLKETTL,not soluble
7,MSLSRAFLVAAPSSGSGKTTITLGLLRLFARRGMAVQPFKCGPDYLDTMLHAMAASTGETARPGLNLDTFMASKEHVRSLFARNAASADISVIEGVMGLFDGAEKSDGSSAEIAALLGLPVIMVIDGSKIAYSAAPILYGFKHFDPSVKVAGVIFNRVGSASHYSHLEAAAKDVGVEPLGYLPRNSDITISERHLGLNTSAEYDREKLIDAMAEHIEKTVNIERLLDVARIELPEIEQAQPVTKKLDKVIAVARDEAFNFIYHDNLETLKRYGEVRFFSPLHDRELPKADLVYLAGGYPELHAEALAANKTMRKAIAEWCRNRGATWAECGGLMYLGKTLTLADGAAHPMCGVLDLDTTMQEARLTLGYRKVYPAGADGVELRGHEFHYSRIWRQGEIDTIAEIRNARGQQVGTKLFRVGNTIASYLHLYWGEHDYLANWFDVLREGHHHHHH,soluble
8,MIYAYIRVSTDKQTVENQRFEINRFAKQRDFQIDVWVEETVSGTRSAKDRKLGVLLKRIKKGDTLIVSEISRLGRRLMEVMSILNACMLKNVILLTVKEKYELGNNIQSQILAFAFSLSAQIERDLISQRTREGLARRIASGQKLGRPMGGHNSKYKLTGKEEKIKAMLEAGTSKAEMARKLKVSRNTLAAFLNRNRTGIPSN,not soluble
9,MGSDKIHHHHHHMTVQQFIKKLVRLVELERNAEINAMLDEMKRLSGEEREKKGRAVLGLTGKFIGEELGYFLVRFGRRKKIDTEIGVGDLVLISKGNPLKSDYTGTVVEKGERFITVAVDRLPSWKLKNVRIDLFASDITFRRQIENLMTLSSEGKKALEFLLGKRKPEESFEEEFTPFDEGLNESQREAVSLALGSSDFFLIHGPFGTGKTRTLVEYIRQEVARGKKILVTAESNLAVDNLVERLWGKVSLVRIGHPSRVSSHLKESTLAHQIETSSEYEKVKKMKEELAKLIKKRDSFTKPSPQWRRGLSDKKILEYAEKNWSARGVSKEKIKEMAEWIKLNSQIQDIRDLIERKEEIIASRIVREAQVVLSTNSSAALEILSGIVFDVVVVDEASQATIPSILIPISKGKKFVLAGDHKQLPPTILSEDAKDLSRTLFEELITRYPEKSSLLDTQYRMNELLMEFPSEEFYDGKLKAAEKVRNITLFDLGVEIPNFGKFWDVVLSPKNVLVFIDTKNRSDRFERQRKDSPSRENPLEAQIVKEVVEKLLSMGVKEDWIGIITPYDDQVNLIRELIEAKVEVHSVDGFQGREKEVIIISFVRSNKNGEIGFLEDLRRLNVSLTRAKRKLIATGDSSTLSVHPTYRRFVEFVKKKGTYVIF,not soluble
10,MTAPFFPRILGAVAFLNQETEPLTMNLQHHFLIAMPALQDPIFRRSVVYICEHNTNGAMGIIVNKPLENLKIEGILEKLKITPEPRDESIRLDKPVMLGGPLAEDRGFILHTPPSNFASSIRISDNTVMTTSRDVLETLGTDKQPSDVLVALGYASWEKGQLEQEILDNAWLTAPADLNILFKTPIADRWREAAKLIGVDILTMPGVAGHALEHHHHHH,not soluble
11,MPDYDLIAILGPTASGKTPFAAALAAELNTEIISADSRQIYRGMDLGTGKDLEDYTINGRQIPYHLIDIADPGYKYNVFEYQRDFLTAYETIKQKGCLPVLCGGTGLYLESVLKGYRLIPVPENQELRVRLAEKSLEELTAILSSYKTLHNSTDVDTVKRAIRAIEIEEYYAKTPIEEREFPQLNSLIIGVDIDRELRREKITRRLKQRLDDGMVEEVRRLLAEGIQPDDLIYYGLEYKYLTLYAIGKMTYDEMFTGLETAIHQFAKRQMTWFRGMERRGFTIHWVDASLPMEEKINFVKQKLKEFLEHHHHHH,soluble
12,SAQSQRAPDRVLCHSGQQQGLPRAAGGSVPHPRCH,soluble
13,MVDIEIWLRLMSISSLYGDDMVRIAHWLAKQSHIDAVVLQQTGLTLRQAQRFLSFPRKSIESSLCWLEQPNHHLIPADSEFYPPQLQATTDYPGALFVEGELHALHSFQLAVVGSRAHSWYGERWGRLFCETLATCGVTITSGLARGIDGVVHKAALQVNGVSIAVLGNGLNTIHPRRHARLAASLFEQGGALVSEFPLDVPPLAYNFPRRNRIISGLSKGVLVVEAALRSGSLVTARCALEQGREVFALPGPIGNPGSEGPHWLIKQGAILVTEPEEILENLQFGLHWLPDAPENSFYSPDQQDVALPFPELLANVGDEVTPVDVVAERAGQPVPEVVTQLLELELAGWIAAVPGGYVRLRRACHVRRTNVFV,not soluble
14,MTQCFKCKQAIGTVVSRDGPTKLYCPDCFLAYCAGAVRENAFQQCRVPSDTPLAVAVSGGPNSMMLLRELGQLRYKTRDQIRRQHLTPQRQAPAQGGKSRSTPTSSPPARSTPLASSLILLPFHLCEDELVLPLPPPLSSSTSSPSSLHAISGRHEAVNRVRSAMEEQFATLRKYVQQQPPRWVYHGEVPCGHKRTKKQQNNPTAAERTGAAHAGGANIATPELSHRGGGSTSAPSPQPRPQRQAGESGETAAATARLFDDSEIRLFRYSDLLSGTYLSELRYALHVSRLSLSDREALYARVRQQTLCRAAQRVCQEHRQRNAAAAAATAVVVGGVAHEEGIREDAAQCSEEQAPFDEHVSLEGTNSKTRSHLLLGSNAVRCATAALEALVTGAGGEGVVHGAGFRGFTHEVVCLRPLRAMLPKETIMYTRLCGIAGSYTPALCTGTATRSVHRTLEQFVLTMMTSYRTMIFNVLNTVQRLEVHPAAMQELLRGIDDASACHTHVHGEGLAEAGSTQSAGKTTRKALPARTAQLNRTDMCLAAPLHVRRDLGGVNVNEADIDSVIAMCCVCGCPASITSCYRGQNANTAVRQLEMLALNTTSAMTPRTSGASPSTVADAASASEASPTTTGCFLCYACQGLADAWPPSVFGRDSTTENDEQPGNDSTTAAGAAARHGAIASTAALFRLCALFY,not soluble
15,MGSDKIHHHHHHMRKMRVLAIGNVFNPSGVSVHIINVLKELVKMGDEVFLYVPSFLVRRNYEVLKDLENAHISVHHSVYETKEAEEVGTLPYFIRSHTVYLRWNNLGEDRKYIDELKDIKPDVIYDMHEDSITLRLSYHIAKRLNKPLVKLLHDEPFRNSFGRGYRKFLGIKGLAYDTLMWMFYKFDKRAFLRSINDGILRGIAGVSKAPFYLSGIEEIAHSVRLKVYEVGNAFNKDIIYKYRRTRGKEDYAVFFARLVPQKGIKELPKIADLLDSKIVVFGKIFNENDRSILMSHPKIEYKGYRPIEEVYNTVAKAKVLIYPSHQDGFSLVVLDTLALGTSVVAYDIPAIRFVFSSLKPVRTVREYDIKEMASTANSILRMKDEEYESEHEDEKVKKFLELHSSWANVAKETHDFLSAFL,not soluble
16,GLLAFFMVIAVSVGGLTQIVPLFFQDVTNKPVEGMKPRTALEVEGRDIYIREGCVGCHSQMIRPFRAETERYGHYSVAGESVWDHPFLWGSKRTGPDLARVGGRYSDDWHRAHLYNPRNVVPESKMPSYPWLVENKLDGKDTAKKMEVLRTLGTPYTDADIAGARDAVKGKTEMDAIVAYLQGLGT,not soluble
17,MGSDKIHHHHHHMSSEHQLLVGLLKKLKADALVLPTLPEVAMRVQEVVSRPDSSPKQVAEIIGQDAAISARMIKVANSAMYSRGIKAENINAAVTRIGLTQIKAIATSVAMEQLFISTNEMVWEVMDEVWRASIEVTSAACALLLKYSKTHKGCGLNYDTLTLASLVHNIGALPVLTEAEANPHLFTSIEQLRALVRKMQGPLGRAVLKSWDFSPEVTEVVERWADLPYLPEQVTYLDFVRAAAFYTGELRAGHDLEERLDVFLQRGLPVSPEYLGSDEFLDNYHSIKLSYE,not soluble
18,MRITHLGHSCILVEAAGQRILVDPGNLSRSWRGLTDLDAILVTHRHPDHVDPEHIGALVDANSGAVVRAEEGACHEIPALDADPVAPGDVLQIGEVRIEAVGGRHAVIHRDLEPIGNVGYLIGEGLGTILYHPGDELDETPRGVDVLACPAHAPWAAMKETVDFARSVGARHGFLIHEGLLNGRGWQLSFDRHQEMVPTTFHDLRNGQPWEVPQDLEHHHHHH,not soluble
19,MLVAERHEKIIALVTEKGSVRVSELSQLFNVTEETIRRDLEKLESERKLQRSHGGAVSIKEDTEAPYFEREIRNVNEKQAVAAQAVTYVTTNDRIILDASTTAWYMAKRLPDVPLTVLTNSMKVAMELAKREKITVITVGGTLLRKSLSFVGPQTNQTLELYHVNKAFISCQGVHAKRGISDSNEMQALVKQKMIDISDHVFLLADHTKFGKQAFSRITSMETIDTIITDSKTSEEQISDFQELEMDVIRALEHHHHHH,soluble
